Data on 2 molecules can be found in PMC10819763, “Reconstitution of the phosphodiesterase 6 maturation process important for photoreceptor cell function” (The Journal of Biological Chemistry, 2023).

“And” between values parts separate entries of the source, which are not always exact repeats. Equal values may be shown once.

First the molecules themselves.
B1: human cone PDE6C (aa 1-830), expressed as an EGFP fusion protein and released with HRV-3C protease (enzyme, UniProt P51160 1-830, looked up)
chain: MGEINQVAVEKYLEENPQFAKEYFDRKLRVEVLGEIFKNSQVPVQSSMSFSELTQVEESALCLELLWTVQEEGGTPEQGVHRALQRLAHLLQADRCSMFLCRSRNGIPEVASRLLDVTPTSKFEDNLVGPDKEVVFPLDIGIVGWAAHTKKTHNVPDVKKNSHFSDFMDKQTGYVTKNLLATPIVVGKEVLAVIMAVNKVNASEFSKQDEEVFSKYLNFVSIILRLHHTSYMYNIESRRSQILMWSANKVFEELTDVERQFHKALYTVRSYLNCERYSIGLLDMTKEKEFYDEWPIKLGEVEPYKGPKTPDGREVNFYKIIDYILHGKEEIKVIPTPPADHWTLISGLPTYVAENGFICNMMNAPADEYFTFQKGPVDETGWVIKNVLSLPIVNKKEDIVGVATFYNRKDGKPFDEHDEYITETLTQFLGWSLLNTDTYDKMNKLENRKDIAQEMLMNQTKATPEEIKSILKFQEKLNVDVIDDCEEKQLVAILKEDLPDPRSAELYEFRFSDFPLTEHGLIKCGIRLFFEINVVEKFKVPVEVLTRWMYTVRKGYRAVTYHNWRHGFNVGQTMFTLLMTGRLKKYYTDLEAFAMLAAAFCHDIDHRGTNNLYQMKSTSPLARLHGSSILERHHLEYSKTLLQDESLNIFQNLNKRQFETVIHLFEVAIIATDLALYFKKRTMFQKIVDACEQMQTEEEAIKYVTVDPTKKEIIMAMMMTACDLSAITKPWEVQSQVALMVANEFWEQGDLERTVLQQQPIPMMDRNKRDELPKLQVGFIDFVCTFVYKEFSRFHKEITPMLSGLQNNRVEWKSLADEYDAKMKVIEEEA
notes: human PDE6C, cone cGMP phosphodiesterase catalytic subunit, truncation of the C-terminal 28 residues (aa 1-830); GFP and PDE6C cDNAs were spliced with primers containing the HRV-3C site and a FLAG tag, cloned into pFastBac HT A by Gibson assembly; also called EGFP-PDE6C; source: Sf9 cells (baculovirus), alone or co-expressed with AIPL1 or with AIPL1 and Pγ; purified (EGFP-nanobody resin, HRV-3C …)

Data set [1] concerns the molecule itself. As to the kind of experiment: SEC; PDE6C co-expressed with AIPL1, eluted from EGFP-nanobody resin with HRV-3C, preincubated with 3 mM ATP for 10 min at 25 °C; Superose 6 10/300 GL in 10 mM HEPES pH 7.5, 150 mM NaCl, 1 mM TCEP, 2 mM MgCl2.
Data set [2] has as its target T1, trypsin-activated PDE6AB from mouse retina extract (mouse (endogenous in retina), UniProt P27664 1-859; P23440 1-856).
T1 construct: mouse rod PDE6 catalytic subunit PDE6A, after trypsin treatment of the retina lysate; mouse rod PDE6 catalytic subunit PDE6B, after trypsin treatment of the retina lysate; Trypsin treatment degrades the endogenous Pγ; The retina extract also holds a few percent of cone PDE6C activity; also called mouse rod PDE6; source: endogenous, C57BL/J mouse retina lysate, trypsin-treated; copies: 1 + 1
As to the kind of experiment: inhibition of enzyme activity (cGMP hydrolysis); trypsin-treated mouse retina extract inhibited by purified recombinant Pγr; 20 mM Tris-HCl pH 7.5, 120 mM NaCl, 2 mM MgSO4, 1 mM BME, 10 μM [3H]cGMP, 25 °C. As to conditions: one partner purified.

Data set [3] deals with B1. As to the kind of experiment: inhibition of enzyme activity (cGMP hydrolysis); purified PDE6C (co-expressed with AIPL1) inhibited by purified recombinant Pγr; 20 mM Tris-HCl pH 7.5, 120 mM NaCl, 2 mM MgSO4, 1 mM BME, 10 μM [3H]cGMP, 25 °C. As to conditions: both partners purified.

A word on the stoichiometry N: it is a count of units in the complex or per binding partner. Usually Ki stands for a dissociation constant, usually derived from enzyme kinetics or from competition with a known ligand.

T1 sequence (P27664 whole entry, chain 1 of 2): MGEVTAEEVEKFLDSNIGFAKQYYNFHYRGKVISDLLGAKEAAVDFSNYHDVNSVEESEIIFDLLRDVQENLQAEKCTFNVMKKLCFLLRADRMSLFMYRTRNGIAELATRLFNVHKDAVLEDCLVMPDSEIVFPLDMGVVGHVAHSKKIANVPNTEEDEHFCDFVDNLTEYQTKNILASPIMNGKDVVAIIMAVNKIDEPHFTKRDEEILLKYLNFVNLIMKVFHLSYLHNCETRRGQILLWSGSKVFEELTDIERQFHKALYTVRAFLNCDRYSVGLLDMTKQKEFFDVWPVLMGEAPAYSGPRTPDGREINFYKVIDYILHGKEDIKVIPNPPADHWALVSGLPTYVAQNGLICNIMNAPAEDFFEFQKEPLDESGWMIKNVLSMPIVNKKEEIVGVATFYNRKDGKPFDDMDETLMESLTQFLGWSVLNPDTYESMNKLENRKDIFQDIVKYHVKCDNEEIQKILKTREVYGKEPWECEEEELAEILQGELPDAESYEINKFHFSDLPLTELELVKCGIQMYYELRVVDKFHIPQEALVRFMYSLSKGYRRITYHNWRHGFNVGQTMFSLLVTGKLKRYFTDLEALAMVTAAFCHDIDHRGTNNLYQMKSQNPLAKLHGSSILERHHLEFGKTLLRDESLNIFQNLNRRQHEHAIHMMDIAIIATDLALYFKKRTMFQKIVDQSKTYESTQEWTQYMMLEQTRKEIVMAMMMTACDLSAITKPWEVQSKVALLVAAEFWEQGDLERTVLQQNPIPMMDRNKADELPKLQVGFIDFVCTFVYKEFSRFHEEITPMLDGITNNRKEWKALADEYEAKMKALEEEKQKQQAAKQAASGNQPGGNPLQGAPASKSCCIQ
T1 sequence (P23440 whole entry, chain 2 of 2): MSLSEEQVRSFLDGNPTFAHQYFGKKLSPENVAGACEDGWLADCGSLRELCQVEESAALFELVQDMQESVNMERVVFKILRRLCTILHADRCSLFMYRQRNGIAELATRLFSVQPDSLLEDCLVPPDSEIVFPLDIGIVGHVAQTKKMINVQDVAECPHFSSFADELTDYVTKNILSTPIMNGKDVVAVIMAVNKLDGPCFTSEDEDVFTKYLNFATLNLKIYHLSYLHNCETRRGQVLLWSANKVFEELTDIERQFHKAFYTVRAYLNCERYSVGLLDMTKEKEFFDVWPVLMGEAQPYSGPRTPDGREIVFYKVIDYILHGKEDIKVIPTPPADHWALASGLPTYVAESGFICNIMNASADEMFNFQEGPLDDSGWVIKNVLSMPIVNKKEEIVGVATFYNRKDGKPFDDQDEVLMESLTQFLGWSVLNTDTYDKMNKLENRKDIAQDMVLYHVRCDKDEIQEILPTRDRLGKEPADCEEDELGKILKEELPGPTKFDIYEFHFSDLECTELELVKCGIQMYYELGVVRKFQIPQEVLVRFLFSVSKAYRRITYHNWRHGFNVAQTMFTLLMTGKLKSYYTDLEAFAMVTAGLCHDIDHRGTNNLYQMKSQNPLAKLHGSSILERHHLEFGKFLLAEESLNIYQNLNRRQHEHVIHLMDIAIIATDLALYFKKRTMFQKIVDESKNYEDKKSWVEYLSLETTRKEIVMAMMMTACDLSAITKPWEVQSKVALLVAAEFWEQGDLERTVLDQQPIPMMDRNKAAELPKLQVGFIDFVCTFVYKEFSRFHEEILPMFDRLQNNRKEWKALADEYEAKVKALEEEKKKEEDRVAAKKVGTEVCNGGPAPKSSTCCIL

For B1, the “stoichiometry N” value in data set [1] is 2.

B2: His6-tagged bovine Pγr (rod PDE6 inhibitory γ-subunit), bacterially expressed (natural protein, UniProt P04972 1-87, looked up)
chain: MNLEPPKAEIRSATRVMGGPVTPRKGPPKFKQRQTRQFKSKPPKKGVQGFGDDIPGMEGLGTDITVICPWEAFNHLELHELAQYGII
notes: also called rod Pγ; purified recombinant Pγr
Regarding B2, the Ki in data set [2] was 0.089 nM; in data set [3] it was 0.095 nM and 0.088 nM.
